From US20250250330A1 (REVOPSIS THERAPEUTICS, published 2025)
Values joined by “and” are separate entries in the source; they are usually repeats but may differ in a detail not shown here. Equal values may be shown once.

Key:
[1] = target: T1, rdANG-2 (canine/dog; Creative Biolab_Vang-3062Lsx) (Canine/Dog, UniProt A0A8J8 19-495, limits assumed); assay: ELISA on coated dog ANG-2
T1 construct: also called Dog ANG-2
T1 sequence (looked up): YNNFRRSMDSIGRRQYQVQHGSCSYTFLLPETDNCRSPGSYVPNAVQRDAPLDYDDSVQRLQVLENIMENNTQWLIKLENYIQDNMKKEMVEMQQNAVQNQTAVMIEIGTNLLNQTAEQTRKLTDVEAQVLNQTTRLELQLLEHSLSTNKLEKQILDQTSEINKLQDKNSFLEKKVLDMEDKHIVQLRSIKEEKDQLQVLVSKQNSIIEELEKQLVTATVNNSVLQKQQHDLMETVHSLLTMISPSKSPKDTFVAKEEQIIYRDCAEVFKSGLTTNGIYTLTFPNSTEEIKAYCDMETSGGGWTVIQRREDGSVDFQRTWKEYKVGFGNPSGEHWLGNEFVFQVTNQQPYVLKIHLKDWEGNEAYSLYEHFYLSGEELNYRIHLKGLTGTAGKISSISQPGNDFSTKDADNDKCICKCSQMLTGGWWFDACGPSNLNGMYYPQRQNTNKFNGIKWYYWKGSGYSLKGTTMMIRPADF

[2] = target: T2, His-tagged recombinant human ANG-2 (AcroBiosystems, Cat #AN2-H52H4) (human, UniProt O15123 275-496); assay: ELISA EC50 on rhANG-2, against Faricimab
T2 construct: also called rhANG-2; rhANG-2-His; not shown: His tag
T2 sequence (looked up): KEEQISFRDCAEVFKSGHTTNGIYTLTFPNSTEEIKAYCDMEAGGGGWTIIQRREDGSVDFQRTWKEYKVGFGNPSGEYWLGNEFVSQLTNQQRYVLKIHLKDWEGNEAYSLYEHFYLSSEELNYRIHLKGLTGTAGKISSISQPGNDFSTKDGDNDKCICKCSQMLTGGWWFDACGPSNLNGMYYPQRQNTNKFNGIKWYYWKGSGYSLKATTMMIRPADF
Experimental: Donkey anti-human IgG Fcγ-HRP (Jackson ImmunoResearch Laboratories, Cat #709-035-098) was used for detection and visualized by TMB substrate. OD450 nm readings were measured by Victor 3 with PerkinElmer 1420 Multilabel Counter.

[3] = target: T3, Recombinant human VEGF165 (Peprotech, Cat #100-20) (human, UniProt P15692-4 27-191); assay: ELISA; rhVEGF165 coated, anti-human IgG Fc-HRP detection
T3 construct: Bought protein; also called rhVEGF165; rh VEGF165
T3 sequence (P15692 other isoform, or with tags, fused parts or gaps limits assumed): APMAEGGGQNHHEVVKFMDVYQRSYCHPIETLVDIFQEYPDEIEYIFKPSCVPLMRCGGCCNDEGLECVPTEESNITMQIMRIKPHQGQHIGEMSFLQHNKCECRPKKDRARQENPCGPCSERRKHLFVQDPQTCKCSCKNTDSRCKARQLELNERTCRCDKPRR
Experimental: VEGF₁₆₅ was used to coat Corning 9017 medium binding plates. […] Donkey anti-human IgG Fcγ-HRP (Jackson ImmunoResearch Laboratories, Cat #709-035-098) was used for detection and visualized by TMB substrate. OD450 nm readings were measured by Victor 3 with PerkinElmer 1420 Multilabel Counter.

[4] = target: T4, Recombinant human ANG-2 (R&D Systems, Cat #623-AN-025/CF) (human, UniProt O15123 19-496, limits assumed); assay: ELISA; rhANG-2 (R&D) coated, anti-human IgG Fc-HRP detection
T4 construct: also called rhANG-2
T4 sequence (looked up): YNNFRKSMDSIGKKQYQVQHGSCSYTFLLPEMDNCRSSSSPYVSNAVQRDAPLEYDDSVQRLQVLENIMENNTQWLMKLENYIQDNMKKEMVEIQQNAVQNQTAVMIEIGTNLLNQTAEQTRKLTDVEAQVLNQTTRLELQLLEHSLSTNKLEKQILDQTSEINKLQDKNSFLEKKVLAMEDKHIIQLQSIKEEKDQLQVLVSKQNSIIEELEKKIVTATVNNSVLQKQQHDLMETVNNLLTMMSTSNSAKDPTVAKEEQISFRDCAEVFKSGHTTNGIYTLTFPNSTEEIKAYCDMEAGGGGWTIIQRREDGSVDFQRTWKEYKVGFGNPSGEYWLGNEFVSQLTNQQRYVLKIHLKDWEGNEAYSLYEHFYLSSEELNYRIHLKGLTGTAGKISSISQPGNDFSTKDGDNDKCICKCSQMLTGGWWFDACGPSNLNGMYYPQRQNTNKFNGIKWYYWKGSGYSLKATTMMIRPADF
Description: The binding was detected by HRP-conjugated donkey anti-human IgG Fcγ antibody (Jackson ImmunoResearch Laboratories, Cat #709-035-098).

[5] = target: T4, Recombinant human ANG-2 (R&D Systems, …); assay: ELISA on rhANG-2 by an independent team; ratio of average EC50 against Faricimab
[6] = target: T3, Recombinant human VEGF165 (Peprotech, …); assay: ELISA; rhVEGF165 coated at 1 ug/mL, anti-human IgG Fc-HRP detection (RO-101_Sample 1)
Experimental: Donkey anti-human IgG Fcγ-HRP (Jackson ImmunoResearch Laboratories, Cat #709-035-098) was used for detection and visualized by TMB substrate. OD450 nm readings were measured by Victor 3 (PerkinElmer 1420 Multilabel Counter).

[7] = target: T2, His-tagged recombinant human ANG-2 …; assay: competition ELISA; IC50 ratio against Faricimab for inhibition of ANG-2-Tie-2 binding
[8] = target: T2, His-tagged recombinant human ANG-2 …; assay: ELISA on rhANG-2; biotinylated anti-VpreB antibody and streptavidin-HRP detection; SgG format; anti-VpreB detection
Experimental: SgG1 was diluted in blocking buffer at a starting concentration of 10 nM. Sab and scSv were diluted in blocking buffer at a starting concentration of 100 nM. They were then 1:3 serial diluted.

[9] = target: T5, rhVEGF-D (AcroBio_VED-H5228) (human, UniProt O43915 89-205, limits assumed); assay: ELISA: rhVEGF-D_AcroBio coated at 1 ug/mL, RO-101_Sample 1 titrated, detected with anti-human IgG Fc-gamma-HRP
T5 construct: domain: PDGF domain; Bought protein; not shown: His tag
T5 sequence (looked up): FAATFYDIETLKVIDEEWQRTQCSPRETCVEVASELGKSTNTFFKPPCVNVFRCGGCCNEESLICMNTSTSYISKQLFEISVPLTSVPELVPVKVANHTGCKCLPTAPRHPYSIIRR
Experimental: Different target proteins were used to coat Corning 9017 medium binding plates at 1 μg/mL and 100 μl per well. Donkey anti-human IgG Fcγ-HRP was used for detection. OD450 nm readings were measured by Victor 3.

B1: RO-101 VEGF/ANG-2 bispecific surrobody (bispecific antibody, human IgG1, L234A L235A)
heavy 1: not shown
heavy 2: EVQLVESGGGLVKPGGSLRLSCAASGFTFSSYGMHWVRQAPGKGLEWVAGISADSGDKNYADSVKGRFTISRDNAKNSLYLQMNSLRAEDTAVYYCAKEFISWIYTFDYLDYWGQGTLVTVSSASTKGPSVFPLAPSSKSTSGGTAALGCLVKDYFPEPVTVSWNSGALTSGVHTFPAVLQSSGLYSLSSVVTVPSSSLGTQTYICNVNHKPSNTKVDKKVEPKSCDKTHTCPPCPAPEAAGGPSVFLFPPKPKDTLMISRTPEVTCVVVDVSHEDPEVKFNWYVDGVEVHNAKTKPREEQYNSTYRVVSVLTVLHQDWLNGKEYKCKVSNKALPAPIEKTISKAKGQPREPQVCTLPPSRDELTKNQVSLSCAVKGFYPSDIAVEWESNGQPENNYKTTPPVLDSDGSFFLVSKLTVDKSRWQQGNVFSCSVMHEALHNHYTQKSLSLSPG
light: QPVLHQPPAMSSALGTTIRLTCTLRNDHDIGVYSVYWYQQRPGHPPRFLLRYFSQSDKSQGPQVPPRFSGSKDVARNRGYLSISELQPEDEAMYYCAMGARSSVTHVFGSGTQLTVLSQPKATPSVTLFPPSSEELQANKATLVCLMNDFYPGILTVTWKADGTPITQGVEMTTPSKQSNNKYAASSYLSLTPEQWRSRRSYSCQVMHEGSTVEKTVAPAECS
notes: Format SgG1; also called Sample 1
- EC50 [1]: 0.0135 nM
- RO-101/Faricimab Fold [2]: 53 fold
- EC50 [3]: 0.0231 nM
- EC50 [4]: 0.0536 nM and 0.0498 nM and 0.0449 nM
- fold better than Faricimab [5]: 58 fold
- EC50 [6]: 0.0135 nM
- Fold [7]: 17.2 fold
- EC50 [8]: 0.0257 nM
- binding result [9]: no binding (tested: 100 nM (Log(nM) 2))
